Measured values published in publication PMC9169858 (2022).
“And” between values parts separate entries of the source, which are not always exact repeats. Equal entries are not always repeated.

Molecular target: SARS-CoV-2 main protease (M^pro), pGEX4T-1 construct, GST removed by thrombin (SARS-CoV-2, UniProt P0DTD1)
Experiment: BLI

Binder	Kd
NB2E3 (VHH) VHH: QVQLQESGGGSVQAGGSLRLSCAVSGFIATSCALGWFRQAPGKEREGIATITTDGTTYYVDSVKGRFTISQDNAKNTVALQMNSLKPEDTAMYYCKLCCSGQYCAWGQGTQVTVSS	2.7 nM
NB1D10 (VHH) VHH: QVQLQESGGGSVQAGGSLRLSCAVSGYSYCNYDLGWFRQAPGKEREGIATIDSDGNTYYVDSVKGRFTISQDNAKNTVALQMNSLKPEDTAMYYCKVGSIASSVPEVSCPPSAPFGYWGQGTQVTVSS	0.43 nM and 0.431 nM
